# According to the supplement of paper PMC7125110:
# ± gives the standard error. Fewer inactive variants are shown than the library holds.
# B1: glmS ribozyme (parent)
# chain: AUAAAAGCGCCAGAACUACAGAAAUGUAGUUGACGAGGAGGAGGUUUAUCGAAUUUUCGGCGGAUGCCUCCAAA
# Variants of: B1
# Experiment: self-cleavage kobs at 2500 uM GlcN6P; higher = faster cleavage; RNA array
# Details: with glucosamine-6-phosphate
# Method in brief: (§1)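 Glucosamine-6-phosphate, from 40 μM to 10 mM in HEPES/KCl/Mg(OAc)2 buffer, was flowed over sequenced MiSeq chips carrying barcoded ribozyme variants transcribed in situ by E. coli RNA polymerase. A hybridised Cy3 probe tracked the variants at 37 °C as tiles were imaged over ~14 h. kobs, kcat and KM were obtained by fitting normalised per-tile medians to exponential decays and then applying weighted Michaelis–Menten fits across concentrations.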
row,Variant,self-cleavage kobs at 2500 uM GlcN6P [s⁻¹]
1,C8U G29C G60U,< 1e-05
2,C10A U30C U55C,< 1e-05
3,C10U G40A A52C G60U,< 1e-05
4,A39G U57A,0.000309 ± 7e-05
5,U56G G66C C71U,0.000269 ± 5.5e-05
6,G26A U30C,0.000125 ± 3.9e-05
7,A33G U47C C61G,< 1e-05
8,G7U C11U G13C A36U U56A,< 1e-05
9,G44U G60U C71A,< 1e-05
10,G29U G38U G66U C68A U69G,0.000147 ± 5.8e-05
11,G37A A52U U57A,8.64e-05 ± 3.1e-05
12,A6G G29C U31C,< 1e-05
13,C8G C16G U56A,< 1e-05
14,G13A A33U A53C,< 1e-05
15,C8G C58U C61U G63U C68U,< 1e-05
16,G9C A42C A48C C58G C71G,< 1e-05
17,G9U C11G A12G A48U G51C,< 1e-05
18,G43C C58G,< 1e-05
19,A33C G35A G38C A52U U65C C68G,< 1e-05
20,U31A G32A A64G,0.000169 ± 4.6e-05
21,G40A U46G U47G,0.000358 ± 0.00012
22,C11U U54C G66U,9.68e-05 ± 3.4e-05
23,A36G C58U G59U A64G,< 1e-05
24,G51C G66A,< 1e-05
25,C16G G37U G44U U47A G51C C68A,< 1e-05
26,A15U G44A A48C U56A C70A,< 1e-05
27,G26U G32U U55G,0.000168 ± 8.2e-05

row,Variant,self-cleavage kobs at 2500 uM GlcN6P [s⁻¹]
1,A53U U54C U57C C61G,< 1e-05
2,G7A G9C A36C,< 1e-05
3,G40A A72C,0.00214 ± 0.00067
4,U47A U56G C68A,7.37e-05 ± 3.6e-05
5,G32A G43U G66A C68G,0.00088 ± 0.0003
6,A6U U31A G37C U54A,< 1e-05
7,C16U U46C U56C,0.000416 ± 7.9e-05
8,U45C C58U G59C,< 1e-05
9,U47C U54A C70U,0.00241 ± 0.00052
10,A14G A33U C70G,< 1e-05
11,A6G C11G U69G,7.2e-05 ± 2.9e-05
12,G38A A39U G43C A48U U55C C70A,< 1e-05
13,A15C A39G U47G A53U,0.000235 ± 8.5e-05
14,A33U C34G A36U C67U,< 1e-05
15,C16U G37U A42G G51U,< 1e-05
16,U31C C34A G37C,< 1e-05
17,C11A G37A G38C,< 1e-05
18,C16U G32A,0.00201 ± 0.00037
19,G9A A15U A48G C70G C71U,< 1e-05
20,U30A G41U C70G,0.00387 ± 0.0011
21,A12G U45G G60U,< 1e-05
22,A39U U49A U56G,< 1e-05
23,A15G G32A C58G,8.81e-05 ± 2.9e-05
24,U31C G40U A48G C61U,< 1e-05
25,A42U U54C C70A,7.14e-05 ± 2.1e-05
26,C11A C34A G41A,< 1e-05
27,G32A C50G C71U,0.000168 ± 7.3e-05

row,Variant,self-cleavage kobs at 2500 uM GlcN6P [s⁻¹]
1,C10A A15C A42C,< 1e-05
2,G44A A48G U55A,< 1e-05
3,G9A U31C A52U,< 1e-05
4,G40U C61U U65A,< 1e-05
5,C34U A48U G59C C68A U69C,< 1e-05
6,C10U A33U G40C C50U,< 1e-05
7,A6G U55A C61G,< 1e-05
8,U47A A48U U55A G60A,< 1e-05
9,A12G A36C G38A A64U,< 1e-05
10,C16A A36G U65G,< 1e-05
11,G32U G37U C58U,< 1e-05
12,A15U A42U G43C C61G U69A,< 1e-05
13,A6U U31C C50A U56G,< 1e-05
14,A14G U30C A39C U54A,0.000132 ± 2.6e-05
15,C8U A39G G60C,< 1e-05
16,U30C C50G G63C,0.00014 ± 5.2e-05
17,G7A G32U G60U,< 1e-05
18,C16U G37A U46C U56G,0.000119 ± 2.7e-05
19,C11U C16A U56G,0.000124 ± 4.3e-05
20,C8U C11U A12U A36C A39G,< 1e-05
21,C16A G43U G51A,< 1e-05
22,C10G A12U G13C G32A,< 1e-05
23,G43A A53U U56G G62U,< 1e-05
24,C10G U56C,< 1e-05
25,C10U A12C C70A,< 1e-05
26,C8U G32C C70U,< 1e-05

# Variants of: B1
# Experiment: self-cleavage kobs at 10000 uM GlcN6P; higher = faster cleavage; RNA array
# Details: with glucosamine-6-phosphate
# Method in brief: as §1
row,Variant,self-cleavage kobs at 10000 uM GlcN6P [s⁻¹]
1,A39G U57A,0.000335 ± 6.1e-05
2,G37A A52U U57A,0.000104 ± 1.9e-05
3,G51C G66A,< 1e-05
4,A39U U49A U56G,< 1e-05
5,G44A A48G U55A,< 1e-05
6,G9A U31C A52U,< 1e-05
7,A14G U30C A39C U54A,0.000156 ± 2.5e-05
8,C8U C11U A12U A36C A39G,< 1e-05
9,C10G U56C,< 1e-05
